Assay results published in PMC3846777, “Characteristics and Function of Sulfur Dioxygenase in Echiuran Worm Urechis unicinctus” (PLoS ONE, 2013).
Where a chain is given by its changes, count along the chain named. Numbers in names are those of the source.

Legend:
Assay in all cases: oxygen consumption, Clark-type oxygen electrode (Oxytherm)
Assay type in all cases: biochemical, Urechis unicinctus
Conditions in all cases: 0.1 M potassium phosphate pH 7.4, 25°C, O2 co-substrate, GSS^− prepared from GSH and acetonic sulfur
[1] = substrate: N[C@@H](CCC(=O)N[C@@H](CSS)C(=O)NCC(=O)O)C(=O)O
[2] = substrate: N[C@@H](CCC(=O)N[C@@H](CSS)C(=O)NCC(=O)O)C(=O)O; remark: listed apart in the source
Excerpt: oxygen consumption, Clark-type oxygen electrode (Oxytherm) on U. unicinctus SDO (complete ORF, wild type)

[3] = substrate: N[C@@H](CCC(=O)N[C@@H](CSS)C(=O)NCC(=O)O)C(=O)O; remark: listed apart in the source
Excerpt: oxygen consumption, Clark-type oxygen electrode (Oxytherm) on Del-1

[4] = substrate: N[C@@H](CCC(=O)N[C@@H](CSS)C(=O)NCC(=O)O)C(=O)O; remark: listed apart in the source
Excerpt: oxygen consumption, Clark-type oxygen electrode (Oxytherm) on Del-3

[5] = substrate: N[C@@H](CCC(=O)N[C@@H](CSS)C(=O)NCC(=O)O)C(=O)O; remark: listed apart in the source
Excerpt: oxygen consumption, Clark-type oxygen electrode (Oxytherm) on Del-2

[6] = substrate: N[C@@H](CCC(=O)N[C@@H](CSS)C(=O)NCC(=O)O)C(=O)O; remark: listed apart in the source
Excerpt: oxygen consumption, Clark-type oxygen electrode (Oxytherm) on Del-4

B1: U. unicinctus SDO (complete ORF, wild type) (Urechis unicinctus; D117E/H118A) (protein)
chain: MLSSVCGSLRRTLCNGSVLASKHPFLGRSNALKLETKPVCTRVMYRSYSANMHGQEVVFRQLFDNTSFTYTYLLGDAASKEAVLIDPVIELVDRDVRIVKELGLNLKYAVNTHVHAEAVTGTGEIKKRIPTCKSVIAECSQAKADVFINEGDGIEFGQFKLECRSTPGHTDGCFTYVWHEKGMAFTGDALLIRGCGRTDFQQGSSEALYKSVHGKILSLPEQFILYPAHDYTGQTSTTVREEKNHNPRLTKPIDVFIRIMSELNLPYPKQLDRALPANMVCGIFDTESPPSKS
Km [1]: 174.4 ± 16.8 µM

B2: U. unicinctus SDO (complete ORF, wild type) (Urechis unicinctus) (protein)
chain: B1 chain with E117D, A118H
Km [2]: 82.5 ± 9.9 µM
Vmax [2]: 1.74 ± 0.081 µmol/min/mg
kcat [2]: 1.09 s⁻¹

B3: Del-1 (Urechis unicinctus) (protein)
chain: MLSSVCGSLRRTLCNGSVLASKHPFLGRSNALKLETKPVCTRVMYRSYSANMHGQEVVFRQLFDNTSFTYTYLLGDAASKEAVLIDPVIELVDRDVRIVKELGLNL
notes: C-terminally truncated SDO, 318 bp from the start codon (106 residues, end calculated from printed size), lacks all metal sites
Km [3]: 218.9 ± 33.5 µM
Vmax [3]: 0.33 ± 0.014 µmol/min/mg
kcat [3]: 0.09 s⁻¹

B4: Del-3 (Urechis unicinctus) (protein)
chain: MLSSVCGSLRRTLCNGSVLASKHPFLGRSNALKLETKPVCTRVMYRSYSANMHGQEVVFRQLFDNTSFTYTYLLGDAASKEAVLIDPVIELVDRDVRIVKELGLNLKYAVNTHVHADHVTGTGEIKKRIPTCKSVIAECSQAKADVFINEGDGIEFGQFKLECRSTPGHTDGCFTYVWHEKGMAFTGDALLIRGCGRTDFQQGSS
notes: C-terminally truncated SDO, 615 bp from the start codon (205 residues, end calculated from printed size)
Km [4]: 104.6 ± 16.7 µM
Vmax [4]: 0.98 ± 0.065 µmol/min/mg
kcat [4]: 0.45 s⁻¹

B5: Del-2 (Urechis unicinctus) (protein)
chain: MLSSVCGSLRRTLCNGSVLASKHPFLGRSNALKLETKPVCTRVMYRSYSANMHGQEVVFRQLFDNTSFTYTYLLGDAASKEAVLIDPVIELVDRDVRIVKELGLNLKYAVNTHVHADHVTGTGEIKKRIPTCKSVIAECSQAKADVFINEGDGIEFGQF
notes: C-terminally truncated SDO, 477 bp from the start codon (159 residues, end calculated from printed size)
Km [5]: 137.0 ± 17.2 µM
Vmax [5]: 0.42 ± 0.024 µmol/min/mg
kcat [5]: 0.16 s⁻¹

B6: Del-4 (Urechis unicinctus) (protein)
chain: MLSSVCGSLRRTLCNGSVLASKHPFLGRSNALKLETKPVCTRVMYRSYSANMHGQEVVFRQLFDNTSFTYTYLLGDAASKEAVLIDPVIELVDRDVRIVKELGLNLKYAVNTHVHADHVTGTGEIKKRIPTCKSVIAECSQAKADVFINEGDGIEFGQFKLECRSTPGHTDGCFTYVWHEKGMAFTGDALLIRGCGRTDFQQGSSEALYKSVHGKILSLPEQFILYPAHDYTGQTSTTVREEKNHNPRLTKPI
notes: C-terminally truncated SDO, 759 bp from the start codon
Km [6]: 83.0 ± 10.9 µM
Vmax [6]: 1.23 ± 0.063 µmol/min/mg
kcat [6]: 0.68 s⁻¹
